Here are results for 94 variants from the supplement of paper PMC10567573.

The labels stand for the following.
B1: MLL5 (parent)
chain: HDDGYMICCDKCSVWQHIDCMGID
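Also: lentivirally expressed fusions sorted by FACS into six bins by GFP to DsRed ratio, PSI derived from sequencing read proportions per bin multiplied by bin number.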

The variants in the series derive from B1. As to the kind of experiment: protein stability index of a GFP-peptide fusion (GPS, HEK-293T) (PSI 1-6); higher = more stable. The following applies: c terminus: a fixed tail appended.
Regarding HDDGYMICCDKCSVWQHIDRMGID [C20R], the protein stability index was 1.97.

Consider HDDGYMICCDKCSVWQHIDCMSID [G22S], for which the protein stability index is 2.14.

On to HDDGYMICCDKCSVWQHIDCMFID [G22F], for which the protein stability index worked out at 2.04.

Consider HDDGYMICCDKCSVWQHIDCMVID [G22V], for which the protein stability index was determined as 1.59.

For the variant HDDGYMICCDKCSVWQHIDCMEID [G22E], the protein stability index stood at 2.4.

Consider HDDGYMICCDKCSVWQHIDCMDID [G22D], for which the protein stability index is 3.8.

As for HDDGYMICCDKCSVWQHIDCMRID [G22R], the protein stability index was 2.43.

Take HDDGYMICCDKCSVWQHIDCMIID [G22I]: the protein stability index was determined as 2.06.

HDDGYMICCDKCSVWQHIDCMMID [G22M]: the protein stability index was 2.25.

HDDGYMICCDKCSVWQHIDCMLID [G22L]: the protein stability index was determined as 1.81.

For the variant HDDGYMICCDKCSVWQHIDCMWID [G22W], the protein stability index turned out to be 2.06.

Take HDDGYMICCDKCSVWQHIDCMYID [G22Y]: the protein stability index was determined as 2.24.

For the variant HDDGYMICCDKCSVWQHIDCMNID [G22N], the protein stability index was found to be 2.58.

For the variant HDDGYMICCDKCSVWQHIDCMCID [G22C], the protein stability index worked out at 3.79.

Regarding HDDGYMICCDKCSVWQHIDCMHID [G22H], the protein stability index was determined as 2.79.

Turning to HDDGYMICCDKCSVWQHIDCMAID [G22A], the protein stability index stood at 2.2.

With HDDGYMICCDKCSVWQHIDCMKID [G22K], the protein stability index was 2.78.

Take HDDGYMICCDKCSVWQHIDCMQID [G22Q]: the protein stability index came out at 2.17.

Consider HDDGYMICCDKCSVWQHIDCMPID [G22P], for which the protein stability index came to 2.39.

For the variant HDDGYMICCDKCSVWQHIDCMTID [G22T], the protein stability index turned out to be 2.19.

HDDGYMICCDKCSWWQHIDCMGID [V14W]: the protein stability index came out at 2.11.

Consider HDDGYMICCDKCSQWQHIDCMGID [V14Q], for which the protein stability index worked out at 2.83.

Consider HDDGYMICCDKCSEWQHIDCMGID [V14E], for which the protein stability index was 3.73.

As for HDDGYMICCDKCSCWQHIDCMGID [V14C], the protein stability index worked out at 2.57.

Take HDDGYMICCDKCSFWQHIDCMGID [V14F]: the protein stability index came out at 1.86.

On to HDDGYMICCDKCSKWQHIDCMGID [V14K], for which the protein stability index was 3.22.

Take HDDGYMICCDKCSIWQHIDCMGID [V14I]: the protein stability index came to 2.57.

With HDDGYMICCDKCSAWQHIDCMGID [V14A], the protein stability index was determined as 2.41.

Turning to HDDGYMICCDKCSNWQHIDCMGID [V14N], the protein stability index stood at 3.05.

Take HDDGYMICCDKCSYWQHIDCMGID [V14Y]: the protein stability index worked out at 2.12.

For the variant HDDGYMICCDKCSSWQHIDCMGID [V14S], the protein stability index stood at 2.77.

Take HDDGYMICCDKCSDWQHIDCMGID [V14D]: the protein stability index is 3.37.

HDDGYMICCDKCSTWQHIDCMGID [V14T]: the protein stability index came to 2.93.

In the case of HDDGYMICCDKCSHWQHIDCMGID [V14H], the protein stability index was 3.23.

As to HDDGYMICCDKCSLWQHIDCMGID [V14L], the protein stability index worked out at 1.78.

Turning to HDDGYMICCDKCSGWQHIDCMGID [V14G], the protein stability index is 2.94.

For the variant HDDGYMICCDKCSMWQHIDCMGID [V14M], the protein stability index is 2.06.

Take HDDGYMICCDKCSPWQHIDCMGID [V14P]: the protein stability index worked out at 3.12.

For HDDGYMICCDKCSRWQHIDCMGID [V14R], the protein stability index came to 2.77.

Turning to HDDGYMICCDKCSVWQHIDCRGID [M21R], the protein stability index stood at 2.85.

HDDGYMICCDKCSVWQHIDCVGID [M21V]: the protein stability index was found to be 2.34.

Regarding HDDGYMICCDKCSVWQHIDCFGID [M21F], the protein stability index was determined as 2.17.

As for HDDGYMICCDKCSVWQHIDCAGID [M21A], the protein stability index is 2.94.

In the case of HDDGYMICCDKCSVWQHIDCHGID [M21H], the protein stability index came to 2.61.

Regarding HDDGYMICCDKCSVWQHIDCGGID [M21G], the protein stability index amounted to 2.66.

With HDDGYMICCDKCSVWQHIDCKGID [M21K], the protein stability index turned out to be 2.81.

For HDDGYMICCDKCSVWQHIDCDGID [M21D], the protein stability index is 3.5.

On to HDDGYMICCDKCSVWQHIDCYGID [M21Y], for which the protein stability index turned out to be 2.21.

With HDDGYMICCDKCSVWQHIDCWGID [M21W], the protein stability index is 2.03.

For the variant HDDGYMICCDKCSVWQHIDCTGID [M21T], the protein stability index was 2.91.

Consider HDDGYMICCDKCSVWQHIDCSGID [M21S], for which the protein stability index was found to be 2.41.

As to HDDGYMICCDKCSVWQHIDCLGID [M21L], the protein stability index came to 2.34.

With HDDGYMICCDKCSVWQHIDCPGID [M21P], the protein stability index stood at 3.14.

For the variant HDDGYMICCDKCSVWQHIDCNGID [M21N], the protein stability index was 2.73.

With HDDGYMICCDKCSVWQHIDCCGID [M21C], the protein stability index amounted to 2.78.

HDDGYMICCDKCSVWQHIDCQGID [M21Q]: the protein stability index came to 2.91.

Regarding HDDGYMICCDKCSVWQHIDCIGID [M21I], the protein stability index turned out to be 2.5.

With HDDGYMICCDKCSVWQHIDCEGID [M21E], the protein stability index worked out at 2.83.

On to HDDGYMICCDKCVVWQHIDCMGID [S13V], for which the protein stability index turned out to be 1.85.

Regarding HDDGYMICCDKCQVWQHIDCMGID [S13Q], the protein stability index worked out at 2.59.

As to HDDGYMICCDKCRVWQHIDCMGID [S13R], the protein stability index turned out to be 3.31.

For the variant HDDGYMICCDKCWVWQHIDCMGID [S13W], the protein stability index came out at 2.37.

Turning to HDDGYMICCDKCTVWQHIDCMGID [S13T], the protein stability index was found to be 2.72.

On to HDDGYMICCDKCYVWQHIDCMGID [S13Y], for which the protein stability index worked out at 1.93.

Take HDDGYMICCDKCSVWQEIDCMGID [H17E]: the protein stability index turned out to be 2.89.

As to HDDGYMICCDKCSVWQDIDCMGID [H17D], the protein stability index came out at 2.5.

For the variant HDDGYMICCDKCSVWQCIDCMGID [H17C], the protein stability index came to 3.54.

Regarding HDDGYMICCDKCSVWQLIDCMGID [H17L], the protein stability index was 1.98.

For the variant HDDGYMICCDKCSVWQKIDCMGID [H17K], the protein stability index was determined as 1.52.

Consider HDDGYMICCDKCSVWQIIDCMGID [H17I], for which the protein stability index was determined as 1.34.

Turning to HDDGYMICCDKCSVWQSIDCMGID [H17S], the protein stability index is 2.48.

As for HDDGYMICCDKCSVWQGIDCMGID [H17G], the protein stability index came out at 2.72.

Consider HDDGYMICCDKCSVWQAIDCMGID [H17A], for which the protein stability index was found to be 2.16.

On to HDDGYMICCDKCSVWQFIDCMGID [H17F], for which the protein stability index came to 1.65.

Consider HDDGYMICCDKCSVWQRIDCMGID [H17R], for which the protein stability index is 1.95.

As for HDDGYMICCDKCSVWQNIDCMGID [H17N], the protein stability index came to 2.32.

On to HDDGYMICCDKCSVWQQIDCMGID [H17Q], for which the protein stability index was found to be 2.48.

Regarding HDDGYMICCDKCSVWQYIDCMGID [H17Y], the protein stability index is 1.63.

For the variant HDDGYMICCDKCSVWQVIDCMGID [H17V], the protein stability index came to 2.8.

Consider HDDGYMICCDKCSVWQTIDCMGID [H17T], for which the protein stability index came to 1.64.

HDDGYMICCDKCSVWQPIDCMGID [H17P]: the protein stability index came out at 2.18.

HDDGYMICCDKCSVWQMIDCMGID [H17M]: the protein stability index amounted to 2.82.

Consider HDDGYMICCDKCSVWQHIDCMGED [I23E], for which the protein stability index was 3.53.

Take HDDGYMICCDKCSVWQHIDCMGND [I23N]: the protein stability index amounted to 2.52.

As to HDDGYMICCDKCSVWQHIDCMGKD [I23K], the protein stability index was found to be 2.99.

As for HDDGYMICCDKCSVWQHIDCMGLD [I23L], the protein stability index amounted to 2.57.

In the case of HDDGYMICCDKCSVWQHIDCMGCD [I23C], the protein stability index is 3.67.

As to HDDGYMICCDKCSVWQHIDCMGGD [I23G], the protein stability index came out at 2.95.

As for HDDGYMICCDKCSVWQHIDCMGDD [I23D], the protein stability index was 2.71.

For the variant HDDGYMICCDKCSVWQHIDCMGPD [I23P], the protein stability index came out at 2.5.

For HDDGYMICCDKCSVWQHIDCMGHD [I23H], the protein stability index worked out at 3.15.

Take HDDGYMICCDKCSVWQHIDCMGAD [I23A]: the protein stability index came out at 2.56.

As to HDDGYMICCDKCSVWQHIDCMGFD [I23F], the protein stability index is 2.1.

Turning to HDDGYMICCDKCSVWQHIDCMGMD [I23M], the protein stability index came out at 2.36.
